Measurements published in patent US20100272723A1 (Xencor, published 2010).
Where two headings read alike, the source gives them in different places.

T1: human CD19 (human, UniProt P15391 20-556)
T1 construct: also called B-cell surface antigen B4; B-cell antigen CD19
T1 sequence: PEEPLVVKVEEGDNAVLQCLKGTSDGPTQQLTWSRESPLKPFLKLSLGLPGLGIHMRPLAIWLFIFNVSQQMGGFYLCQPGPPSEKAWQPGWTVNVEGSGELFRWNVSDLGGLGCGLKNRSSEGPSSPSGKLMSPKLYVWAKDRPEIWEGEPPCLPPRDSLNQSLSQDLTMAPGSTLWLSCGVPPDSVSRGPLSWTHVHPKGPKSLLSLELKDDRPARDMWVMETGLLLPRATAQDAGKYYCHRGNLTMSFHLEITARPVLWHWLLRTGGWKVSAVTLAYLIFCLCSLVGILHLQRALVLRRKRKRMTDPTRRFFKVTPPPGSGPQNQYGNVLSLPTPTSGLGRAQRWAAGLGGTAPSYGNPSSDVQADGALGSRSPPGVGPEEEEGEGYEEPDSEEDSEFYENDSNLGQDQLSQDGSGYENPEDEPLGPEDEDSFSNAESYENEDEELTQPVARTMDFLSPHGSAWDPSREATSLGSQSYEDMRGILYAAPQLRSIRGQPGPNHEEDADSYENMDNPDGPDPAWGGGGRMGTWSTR


Experiments:
human CD19 [1] = target: T1, human CD19; experiment: binding affinity relative to the parent H1L1 mAb (Example 5); assay and format not named on the sheet
human CD19 [2] = target: T1, human CD19; experiment: as above; remark: listed apart in the source

Binder | Fold change binding (human CD19 [1]) | Fold change binding (human CD19 [2])
H1 / L1.3 (antibody, V domains shown, vs H1L1 (Kabat): VL S52Q; also called 4G7 H1_L1.3) VH: EVQLVESGGGLVKPGGSLKLSCAASGYTFTSYVMHWVRQAPGKGLEWIGYINPYNDGTKYNEKFQGRVTISSDKSISTAYMELSSLRSEDTAMYYCARGTYYYGSRVFDYWGQGTLVTVSS VL: DIVMTQSPATLSLSPGERATLSCRSSKSLLNSNGNTYLYWFQQKPGQSPQLLIYRMQNLASGVPDRFSGSGSGTEFTLTISSLEPEDFAVYYCMQHLEYPFTFGAGTKLEIK | 1.85 fold | 
H1.203 / L1.155 (antibody, V domains shown, vs H1L1 (Kabat): VH D55S/K58E/S100cT; VL L27cQ/S27eV/A55N/F96I; also called 4G7 H1.203_L1.155) VH: EVQLVESGGGLVKPGGSLKLSCAASGYTFTSYVMHWVRQAPGKGLEWIGYINPYNSGTEYNEKFQGRVTISSDKSISTAYMELSSLRSEDTAMYYCARGTYYYGTRVFDYWGQGTLVTVSS VL: DIVMTQSPATLSLSPGERATLSCRSSKSLQNVNGNTYLYWFQQKPGQSPQLLIYRMSNLNSGVPDRFSGSGSGTEFTLTISSLEPEDFAVYYCMQHLEYPITFGAGTKLEIK |  | 4.73 fold
H1.203 / L1.160 (antibody, V domains shown, vs H1L1 (Kabat): VH D55S/K58E/S100cT; VL L27cQ/S27eV/G29A/A55N/F96I; also called 4G7 H1.203_L1.160) VH: EVQLVESGGGLVKPGGSLKLSCAASGYTFTSYVMHWVRQAPGKGLEWIGYINPYNSGTEYNEKFQGRVTISSDKSISTAYMELSSLRSEDTAMYYCARGTYYYGTRVFDYWGQGTLVTVSS VL: DIVMTQSPATLSLSPGERATLSCRSSKSLQNVNANTYLYWFQQKPGQSPQLLIYRMSNLNSGVPDRFSGSGSGTEFTLTISSLEPEDFAVYYCMQHLEYPITFGAGTKLEIK |  | 1.76 fold
H1.201 / L1.160 (antibody, V domains shown, vs H1L1 (Kabat): VH D55S/S100cT; VL L27cQ/S27eV/G29A/A55N/F96I; also called 4G7 H1.201_L1.160) VH: EVQLVESGGGLVKPGGSLKLSCAASGYTFTSYVMHWVRQAPGKGLEWIGYINPYNSGTKYNEKFQGRVTISSDKSISTAYMELSSLRSEDTAMYYCARGTYYYGTRVFDYWGQGTLVTVSS VL: DIVMTQSPATLSLSPGERATLSCRSSKSLQNVNANTYLYWFQQKPGQSPQLLIYRMSNLNSGVPDRFSGSGSGTEFTLTISSLEPEDFAVYYCMQHLEYPITFGAGTKLEIK |  | 4.51 fold
H1.204 / L1.160 (antibody, V domains shown, vs H1L1 (Kabat): VH D55E/K58E/S100cT; VL L27cQ/S27eV/G29A/A55N/F96I; also called 4G7 H1.204_L1.160) VH: EVQLVESGGGLVKPGGSLKLSCAASGYTFTSYVMHWVRQAPGKGLEWIGYINPYNEGTEYNEKFQGRVTISSDKSISTAYMELSSLRSEDTAMYYCARGTYYYGTRVFDYWGQGTLVTVSS VL: DIVMTQSPATLSLSPGERATLSCRSSKSLQNVNANTYLYWFQQKPGQSPQLLIYRMSNLNSGVPDRFSGSGSGTEFTLTISSLEPEDFAVYYCMQHLEYPITFGAGTKLEIK |  | 3.46 fold
H1 / L1.26 (antibody, V domains shown, vs H1L1 (Kabat): VL L27cQ; also called 4G7 H1_L1.26) VH: EVQLVESGGGLVKPGGSLKLSCAASGYTFTSYVMHWVRQAPGKGLEWIGYINPYNDGTKYNEKFQGRVTISSDKSISTAYMELSSLRSEDTAMYYCARGTYYYGSRVFDYWGQGTLVTVSS VL: DIVMTQSPATLSLSPGERATLSCRSSKSLQNSNGNTYLYWFQQKPGQSPQLLIYRMSNLASGVPDRFSGSGSGTEFTLTISSLEPEDFAVYYCMQHLEYPFTFGAGTKLEIK | 1.73 fold | 
H1.203 / L1.161 (antibody, V domains shown, vs H1L1 (Kabat): VH D55S/K58E/S100cT; VL L27cQ/S27eV/G29S/A55N/F96I; also called 4G7 H1.203_L1.161) VH: EVQLVESGGGLVKPGGSLKLSCAASGYTFTSYVMHWVRQAPGKGLEWIGYINPYNSGTEYNEKFQGRVTISSDKSISTAYMELSSLRSEDTAMYYCARGTYYYGTRVFDYWGQGTLVTVSS VL: DIVMTQSPATLSLSPGERATLSCRSSKSLQNVNSNTYLYWFQQKPGQSPQLLIYRMSNLNSGVPDRFSGSGSGTEFTLTISSLEPEDFAVYYCMQHLEYPITFGAGTKLEIK |  | 2.92 fold
H1.201 / L1.161 (antibody, V domains shown, vs H1L1 (Kabat): VH D55S/S100cT; VL L27cQ/S27eV/G29S/A55N/F96I; also called 4G7 H1.201_L1.161) VH: EVQLVESGGGLVKPGGSLKLSCAASGYTFTSYVMHWVRQAPGKGLEWIGYINPYNSGTKYNEKFQGRVTISSDKSISTAYMELSSLRSEDTAMYYCARGTYYYGTRVFDYWGQGTLVTVSS VL: DIVMTQSPATLSLSPGERATLSCRSSKSLQNVNSNTYLYWFQQKPGQSPQLLIYRMSNLNSGVPDRFSGSGSGTEFTLTISSLEPEDFAVYYCMQHLEYPITFGAGTKLEIK |  | 3.89 fold
H1.199 / L1.148 (antibody, V domains shown, vs H1L1 (Kabat): VH T57P/K58E/S100cT; VL L27cQ/A55N/F96N; also called 4G7 H1.199_L1.148) VH: EVQLVESGGGLVKPGGSLKLSCAASGYTFTSYVMHWVRQAPGKGLEWIGYINPYNDGPEYNEKFQGRVTISSDKSISTAYMELSSLRSEDTAMYYCARGTYYYGTRVFDYWGQGTLVTVSS VL: DIVMTQSPATLSLSPGERATLSCRSSKSLQNSNGNTYLYWFQQKPGQSPQLLIYRMSNLNSGVPDRFSGSGSGTEFTLTISSLEPEDFAVYYCMQHLEYPNTFGAGTKLEIK |  | 4.34 fold
H1 / L1.17 (antibody, V domains shown, vs H1L1 (Kabat): VL E93T; also called 4G7 H1_L1.17) VH: EVQLVESGGGLVKPGGSLKLSCAASGYTFTSYVMHWVRQAPGKGLEWIGYINPYNDGTKYNEKFQGRVTISSDKSISTAYMELSSLRSEDTAMYYCARGTYYYGSRVFDYWGQGTLVTVSS VL: DIVMTQSPATLSLSPGERATLSCRSSKSLLNSNGNTYLYWFQQKPGQSPQLLIYRMSNLASGVPDRFSGSGSGTEFTLTISSLEPEDFAVYYCMQHLTYPFTFGAGTKLEIK | 1.57 fold | 
H1 / L1.9 (antibody, V domains shown, vs H1L1 (Kabat): VL S52L; also called 4G7 H1_L1.9) VH: EVQLVESGGGLVKPGGSLKLSCAASGYTFTSYVMHWVRQAPGKGLEWIGYINPYNDGTKYNEKFQGRVTISSDKSISTAYMELSSLRSEDTAMYYCARGTYYYGSRVFDYWGQGTLVTVSS VL: DIVMTQSPATLSLSPGERATLSCRSSKSLLNSNGNTYLYWFQQKPGQSPQLLIYRMLNLASGVPDRFSGSGSGTEFTLTISSLEPEDFAVYYCMQHLEYPFTFGAGTKLEIK | 1.84 fold | 
H1.202 / L1.161 (antibody, V domains shown, vs H1L1 (Kabat): VH D55E/S100cT; VL L27cQ/S27eV/G29S/A55N/F96I; also called 4G7 H1.202_L1.161) VH: EVQLVESGGGLVKPGGSLKLSCAASGYTFTSYVMHWVRQAPGKGLEWIGYINPYNEGTKYNEKFQGRVTISSDKSISTAYMELSSLRSEDTAMYYCARGTYYYGTRVFDYWGQGTLVTVSS VL: DIVMTQSPATLSLSPGERATLSCRSSKSLQNVNSNTYLYWFQQKPGQSPQLLIYRMSNLNSGVPDRFSGSGSGTEFTLTISSLEPEDFAVYYCMQHLEYPITFGAGTKLEIK |  | 4.3 fold
H1.199 / L1.152 (antibody, V domains shown, vs H1L1 (Kabat): VH T57P/K58E/S100cT; VL L27cQ/S27eV/F96N; also called 4G7 H1.199_L1.152) VH: EVQLVESGGGLVKPGGSLKLSCAASGYTFTSYVMHWVRQAPGKGLEWIGYINPYNDGPEYNEKFQGRVTISSDKSISTAYMELSSLRSEDTAMYYCARGTYYYGTRVFDYWGQGTLVTVSS VL: DIVMTQSPATLSLSPGERATLSCRSSKSLQNVNGNTYLYWFQQKPGQSPQLLIYRMSNLASGVPDRFSGSGSGTEFTLTISSLEPEDFAVYYCMQHLEYPNTFGAGTKLEIK |  | 3.55 fold
H1.199 / L1.146 (antibody, V domains shown, vs H1L1 (Kabat): VH T57P/K58E/S100cT; VL S27eV/A55N/F96N; also called 4G7 H1.199_L1.146) VH: EVQLVESGGGLVKPGGSLKLSCAASGYTFTSYVMHWVRQAPGKGLEWIGYINPYNDGPEYNEKFQGRVTISSDKSISTAYMELSSLRSEDTAMYYCARGTYYYGTRVFDYWGQGTLVTVSS VL: DIVMTQSPATLSLSPGERATLSCRSSKSLLNVNGNTYLYWFQQKPGQSPQLLIYRMSNLNSGVPDRFSGSGSGTEFTLTISSLEPEDFAVYYCMQHLEYPNTFGAGTKLEIK |  | 4.11 fold
H1 / L1.32 (antibody, V domains shown, vs H1L1 (Kabat): VL S27eV; also called 4G7 H1_L1.32) VH: EVQLVESGGGLVKPGGSLKLSCAASGYTFTSYVMHWVRQAPGKGLEWIGYINPYNDGTKYNEKFQGRVTISSDKSISTAYMELSSLRSEDTAMYYCARGTYYYGSRVFDYWGQGTLVTVSS VL: DIVMTQSPATLSLSPGERATLSCRSSKSLLNVNGNTYLYWFQQKPGQSPQLLIYRMSNLASGVPDRFSGSGSGTEFTLTISSLEPEDFAVYYCMQHLEYPFTFGAGTKLEIK | 2.61 fold | 
H1 / L1.46 (antibody, V domains shown, vs H1L1 (Kabat): VL N53H; also called 4G7 H1_L1.46) VH: EVQLVESGGGLVKPGGSLKLSCAASGYTFTSYVMHWVRQAPGKGLEWIGYINPYNDGTKYNEKFQGRVTISSDKSISTAYMELSSLRSEDTAMYYCARGTYYYGSRVFDYWGQGTLVTVSS VL: DIVMTQSPATLSLSPGERATLSCRSSKSLLNSNGNTYLYWFQQKPGQSPQLLIYRMSHLASGVPDRFSGSGSGTEFTLTISSLEPEDFAVYYCMQHLEYPFTFGAGTKLEIK | 1.75 fold | 
H1.201 / L1.155 (antibody, V domains shown, vs H1L1 (Kabat): VH D55S/S100cT; VL L27cQ/S27eV/A55N/F96I; also called 4G7 H1.201_L1.155) VH: EVQLVESGGGLVKPGGSLKLSCAASGYTFTSYVMHWVRQAPGKGLEWIGYINPYNSGTKYNEKFQGRVTISSDKSISTAYMELSSLRSEDTAMYYCARGTYYYGTRVFDYWGQGTLVTVSS VL: DIVMTQSPATLSLSPGERATLSCRSSKSLQNVNGNTYLYWFQQKPGQSPQLLIYRMSNLNSGVPDRFSGSGSGTEFTLTISSLEPEDFAVYYCMQHLEYPITFGAGTKLEIK |  | 4.48 fold
H1 / L1.8 (antibody, V domains shown, vs H1L1 (Kabat): VL S52K; also called 4G7 H1_L1.8) VH: EVQLVESGGGLVKPGGSLKLSCAASGYTFTSYVMHWVRQAPGKGLEWIGYINPYNDGTKYNEKFQGRVTISSDKSISTAYMELSSLRSEDTAMYYCARGTYYYGSRVFDYWGQGTLVTVSS VL: DIVMTQSPATLSLSPGERATLSCRSSKSLLNSNGNTYLYWFQQKPGQSPQLLIYRMKNLASGVPDRFSGSGSGTEFTLTISSLEPEDFAVYYCMQHLEYPFTFGAGTKLEIK | 2.18 fold | 
H1.202 / L1.160 (antibody, V domains shown, vs H1L1 (Kabat): VH D55E/S100cT; VL L27cQ/S27eV/G29A/A55N/F96I; also called 4G7 H1.202_L1.160) VH: EVQLVESGGGLVKPGGSLKLSCAASGYTFTSYVMHWVRQAPGKGLEWIGYINPYNEGTKYNEKFQGRVTISSDKSISTAYMELSSLRSEDTAMYYCARGTYYYGTRVFDYWGQGTLVTVSS VL: DIVMTQSPATLSLSPGERATLSCRSSKSLQNVNANTYLYWFQQKPGQSPQLLIYRMSNLNSGVPDRFSGSGSGTEFTLTISSLEPEDFAVYYCMQHLEYPITFGAGTKLEIK |  | 3.96 fold
